Among the data in patent US20060172367 are Relative activity (%) values, retold here.

For one series, the target named is T1, fructosyl valine-leucine.
T1 chain: VL

The target in series [1] is T2, fructosyl valine-histidine.
T2 chain: VH

The target in series [2] is T3, fructosyl valine-leucine-serine.
T3 chain: VLS

Series [3] addresses T4, fructosyl valine-histidine-leucine.
T4 chain: VHL

B1: fructosylamine oxidase FAO-Q1 from Fusarium proliferatum GL2-1 strain (protein)
chain: MAGPPSSILIVGSGVFGLGTAWALAKRSHFSNTSITVVDDCAGQFPPEDAASVDSSRIVRADYSDPYYAALAAEAQKEWRKQGDHEVGGQGRYSESGFVLCASETPEDFKLKKSGMDYTKESAKNVELIAKETGLPVDKIQKLESTKALQEFLGTDGYPGDWGYLNGNSGWADAGEGMKWLYKQAQATGRIHFVNGKVTELVTEGDRVIGAKLSDSKILKADVVMVAAGAWSGSLVDLRGRTEATGHAVAYMDITPEEQKRLDNFPVVLNLSTGLFLIPPRNNVLKAARHTFGYINPVKINNALPPSPNDKREPFIASQPYTSRNDSSNPLTVEADKDLRRALTDLCPIRGLETRPWKEARICWYSDTRDGEWLIDYHPGWKGLFVATGDSGHGFKFLPNLGEKIVDVMQGQGGKLGEKWRWKEIQNDGVGRETNGVYTGLVTEDGSRGGRPLVLCDELEKGRALIGNTKAKL
Turning to B1, the Relative activity (%) with fructosyl valine-leucine is 1.1%.

B2: fructosylamine oxidase FAO-Q2 from Fusarium proliferatum GL2-1 strain (protein)
chain: MARTVAPLNKDSGILIVGGGTWGCSTALHLARRGYTNVTVLDVNRIPSPISAGHDVNKLSNRLGTSDSKGDDEDSIWKALTYAAAQGWLHDPIFQPFCHNTGAVMAGSTPKSIKQLVEDEIGDDIDQYTPLNTAEDFRRTMPERILTGDFLGWKGFYKPRGSGWVHARKAMKAAFEESQRLGVKFITGSPEGKVESLVFEAGDVKGAKTADGKEHRADRTILSAGASAEFSLDFENQIRPTAWTLGHIQMTAEETKLYKELPPLFNINQGFFMEPDEDLHQLKMCDEHPGYCNWVDKPGSKYPQSIPFAKYQVPIEAERRMKQFLKDIMPQLADRPLVHARICWCADTQDRMFLITYHPRHPSLVIASGDCGTGYKHITSIGKFISDCMEGTLEERFAKFWRWRPEKFTEFWGKDPLDRFGADDKIMDLPKSDAEGWTDIQNDK
In the case of B2, the Relative activity (%) was 0.6% with fructosyl valine-leucine, 2.4% in series [1], 3.3% in series [2] and 0.6% in series [3].
